Measurements: patent US10119980B2, “Method for detection of basic peptide and reagent for detection of basic peptide” (SYSMEX CORPORATION, priority 2009, dated 2018)
Each block holds one molecule with its values, some of them ahead of it. Ends that are not written are not given here.

Assays:
heat-denatured BSA = target: T1, heat-denatured BSA (Bos taurus, UniProt P02769); assay: Turbidity (OD550) measurement and Hill plot analysis of peptides mixed with heat-denatured BSA reagent; format: binding, bovine; conditions: for Hill coefficient n: Example 5, peptide 0 to 80 μM; for change in OD550 with increasing peptide concentration: peptide mixed with heat-denatured BSA, final 0.2 w/v %
T1 construct: purchased Sigma-Aldrich
T1 sequence (P02769 25-607): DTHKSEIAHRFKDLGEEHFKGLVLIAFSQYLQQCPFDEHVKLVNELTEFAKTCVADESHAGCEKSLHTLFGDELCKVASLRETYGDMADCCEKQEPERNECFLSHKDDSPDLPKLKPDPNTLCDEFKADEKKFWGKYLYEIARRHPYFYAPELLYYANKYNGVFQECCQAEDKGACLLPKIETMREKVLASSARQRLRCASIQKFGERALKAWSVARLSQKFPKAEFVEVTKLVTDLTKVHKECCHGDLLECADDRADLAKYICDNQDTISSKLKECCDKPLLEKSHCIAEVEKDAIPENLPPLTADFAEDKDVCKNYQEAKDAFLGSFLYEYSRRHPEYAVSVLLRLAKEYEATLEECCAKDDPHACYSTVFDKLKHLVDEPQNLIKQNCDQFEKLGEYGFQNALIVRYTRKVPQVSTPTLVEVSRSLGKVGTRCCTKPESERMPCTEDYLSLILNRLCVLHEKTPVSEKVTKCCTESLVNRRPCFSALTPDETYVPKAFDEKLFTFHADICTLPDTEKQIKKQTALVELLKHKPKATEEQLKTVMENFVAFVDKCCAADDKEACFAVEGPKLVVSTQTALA
Experimental: A partial dynorphin A peptide consisting of amino acids of positions 1 to 13 of dynorphin A (SEQ ID NO: 2; Peptide Institute, Inc.) was used as the basic peptide of interest. A neutral peptide, α-endorphin (SEQ ID NO: 3; Peptide Institute, Inc.) was also used as a comparative peptide of interest. These peptides were dissolved in ultrapure water to prepare samples containing respective peptides (1.0 mg/ml).
(§1) The denatured BSA solution prepared in the above (1) (50 μl) was mixed with the respective samples prepared in (2) followed by addition of ultrapure water to prepare a total volume of 250 μl of mixed solutions containing respective peptides. In the preparation, the sample was mixed so as to obtain a final concentration of the respective peptides in the mixed solutions of 0 to 150 μM.
The thus-prepared mixed solutions were measured for OD550 in the similar manner as Example 1.
A fragment of kininogen (positions 439 to 457 (SEQ ID NO: 4); synthesized at Biologica Co.) and a fragment of ITIH4 (positions 611 to 642 (SEQ ID NO: 5); synthesized at Biologica Co.) which were known as cancer metastasis markers were used as basic peptides of interest. These peptides were dissolved in ultrapure water to prepare samples containing respective peptides (1.0 mg/ml).
as §1, with “80” for “150”
The thus-prepared mixed solutions were measured for OD550 in the similar manner as Example 1. The Kd value and Hill coefficient were calculated for the respective samples.
Besides a basic peptide, to be studied for comparison, a neutral peptide Fibrinogen α (SEQ ID NO: 6; Biological Co.) and acidic peptides C3f (SEQ ID NO: 7; Biologica Co.) and Factor XIII (SEQ ID NO: 8; Biologica Co.) were prepared. These peptides were dissolved in ultrapure water to prepare samples containing respective peptides (1.0 mg/ml).
as §1, with “solutions containing the respective peptides.” for “solutions containing respective peptides.”, “was mixed with the heat-denatured BSA solution so as” for “was mixed so as”, “0 to 80 μM.” for “0 to 150 μM.”

[1] = target: T2, partial ACTH peptide (positions 1 to 24 of ACTH) (Homo sapiens, UniProt P01189); assay: Turbidity (OD550) measurement and Hill plot analysis of albumin reagents mixed with partial ACTH peptide; format: binding; conditions: for change in OD550 with increasing partial ACTH peptide concentration: albumin reagent mixed with partial ACTH peptide
T2 construct: consisting of the amino acids of positions 1 to 24 of ACTH
T2 sequence (P01189 138-161): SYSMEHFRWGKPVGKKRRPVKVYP
Experimental: BSA (Sigma-Aldrich) was dissolved in Milli-Q® water (Millipore) to prepare a BSA solution (1.0 w/v %). The BSA solution was divided into two and one was designated as a non-denatured BSA solution and the other was autoclaved at 110° C. for 15 minutes to obtain a heat-denatured BSA solution.
A partial ACTH peptide (Peptide Institute, Inc.) consisting of the amino acids of positions 1 to 24 of ACTH was used as the basic peptide of interest. The peptide was dissolved in ultrapure water to prepare a sample containing the basic peptide of interest (1.0 mg/ml).
The heat-denatured BSA solution prepared in the above (1) (50 μl) was mixed with the sample prepared in (2) followed by addition of ultrapure water to prepare a total volume of 250 μl of a mixed solution (final concentration of heat-denatured BSA: 0.2 w/v %). In this preparation, the sample was mixed so as to obtain a final concentration of the partial ACTH peptide in the mixed solution of 0 to 150 μM. A comparative mixed solution was also prepared in the similar manner except that the non-denatured BSA solution was used instead of the heat-denatured BSA solution.
The thus-prepared mixed solutions were measured for absorbance at the wavelength of 550 nm (OD550) in a spectrophotometer UV-2500PC (Shimadzu Corporation). The obtained results were subjected to Hill plot analysis with KaleidaGraph (HULINKS, Inc.) to calculate the values of Kd and the Hill coefficient of heat-denatured BSA and non-denatured BSA.
BSA (Sigma-Aldrich) was dissolved in Milli-Q® water (Millipore) to prepare a BSA solution (1.0 w/v %). The BSA solution was divided into five aliquots among which one was designated as a non-denatured BSA solution (heat denaturation period: 0 min) and the rest of four were heated in an autoclave at 110° C. for 5, 15, 60 and 120 min, respectively, to obtain heat-denatured BSA solutions.
The Kd value and Hill coefficient of BSA at respective heat denaturation periods were calculated. […]
The Kd value and Hill coefficient were calculated for the mixed solutions. […]

[2] = Example 1, final BSA 0.2 w/v %, peptide 0 to 150 μM, OD550 Hill plot
[3] = Example 6, albumin autoclaved at 115° C. for 15 minutes, final 0.2 w/v %, peptide 0 to 80 μM

Molecule: CC[C@H](C)[C@H](NC(=O)[C@H](CCCNC(=N)N)NC(=O)[C@H](CCCNC(=N)N)NC(=O)[C@H](CC(C)C)NC(=O)[C@H](Cc1ccccc1)NC(=O)CNC(=O)CNC(=O)[C@@H](N)Cc1ccc(O)cc1)C(=O)N[C@@H](CCCNC(=N)N)C(=O)N1CCC[C@H]1C(=O)N[C@@H](CCCCN)C(=O)N[C@@H](CC(C)C)C(=O)N[C@@H](CCCCN)C(=O)O [partial dynorphin A peptide]
- Kd (heat-denatured BSA): 30 µM
- Hill coefficient (heat-denatured BSA; Example 4, peptide 0 to 150 μM, OD550 Hill plot): 8
- change in OD550 with increasing peptide concentration (heat-denatured BSA): increased in a concentration dependent manner

Molecule: α-endorphin (YGGFMTSEKSQTPLVT; listed as Homo sapiens)
- change in OD550 with increasing peptide concentration (heat-denatured BSA): no change in OD550

Molecule: C3f: acidic peptide C3f (SEQ ID NO: 7) (HWESASLL; listed as Homo sapiens)
- change in OD550 with increasing peptide concentration (heat-denatured BSA): no change in OD550

Molecule: Factor XIII: acidic peptide Factor XIII (SEQ ID NO: 8) (AVPPNNSNAAEDDLPTVELQGVVPR; listed as Homo sapiens)
- change in OD550 with increasing peptide concentration (heat-denatured BSA): no change in OD550

Molecule: Fibrinogen α: neutral peptide Fibrinogen α (SEQ ID NO: 6) (DEAGSEADHEGTHSTKRGHAKSRPV; listed as Homo sapiens)
- change in OD550 with increasing peptide concentration (heat-denatured BSA): no change in OD550

Second part, led by results:

- Hill coefficient n (heat-denatured BSA; OD550 Hill plot): 9
Molecule: GESRNRNVHSGSTFFKYYLQGAKIPKPEASFS [ITIH4 (611-642)]
- change in OD550 with increasing peptide concentration (heat-denatured BSA): increased in a peptide concentration dependent manner

- Hill coefficient n [1, 2]: 1
- Kd [1, 2]: 290 µM
- change in OD550 with increasing partial ACTH peptide concentration ([1]; listed as BSA solution that was heat-denatured for 0 min): not changed
- Hill coefficient n ([1]; heat denaturation period 0 min): 1
- Kd ([1]; heat denaturation period 0 min): 290 µM
Molecule: Non-denatured BSA: BSA (Sigma-Aldrich) solution 1.0 w/v %, not heated; comparative reagent [reference compound]
- change in OD550 with increasing partial ACTH peptide concentration [1]: significant change in the value of OD550 was not observed

- Hill coefficient n (heat-denatured BSA; OD550 Hill plot): 8
- change in OD550 with increasing peptide concentration (heat-denatured BSA): increased
Molecule: HNLGHGHKHERDQGHGHQR [Kininogen (439-457)]

- Hill coefficient n [1, 3]: 3
- Kd [1, 3]: 67 µM
- Hill coefficient n ([1]; Example 6, albumin autoclaved at 115° C. for 15 minutes, final 0.2 w/v %, peptide 0 to 80 μM, listed as heat-denatured OA): 11
B1: Heat-denatured OA: ovoalbumin solution (1.0 w/v %), pH 5 to 7, autoclaved at 115° C. for 15 minutes (protein)
chain: GSIGAASMEFCFDVFKELKVHHANENIFYCPIAIMSALAMVYLGAKDSTRTQINKVVRFDKLPGFGDSIEAQCGTSVNVHSSLRDILNQITKPNDVYSFSLASRLYAEERYPILPEYLQCVKELYRGGLEPINFQTAADQARELINSWVESQTNGIIRNVLQPSSVDSQTAMVLVNAIVFKGLWEKAFKDEDTQAMPFRVTEQESKPVQMMYQIGLFRVASMASEKMKILELPFASGTMSMLVLLPDEVSGLEQLESIINFEKLTEWTSSNVMEERKIKVYLPRMKMEEKYNLTSVLMAMGITDVFSSSANLSGISSAESLKISQAVHAAHAEINEAGREVVGSAEAGVDAASVSEEFRADHPFLFCIKHIATNAVLFFGRCVSP
- change in OD550 with increasing partial ACTH peptide concentration [1]: increase in a manner dependent on the concentrations of the basic peptide
